Test results reported in patent US6991908B1, “Antiobestic agents methods for screening antiobestic agents and kits comprising same” (Takeda Chemical Industries, Ltd., priority 1998, dated 2006).
Positions of bridges follow the written chain, without caps; N, C: chain ends. No end group written: not given here. *: point of attachment. X1 = 3‑(4-hydroxy-3-iodophenyl)propionyl, O=C(CCc1ccc(O)c(I)c1)*

Key:
Format in all cases: biochemical
rat SLC-1 [1] = target: T1, rat SLC-1 (Rattus norvegicus, UniProt P97639); assay: Agonist activity by GTPγS binding assay, rat SLC-1-expression CHO cell membrane fraction (Example 21); conditions: rat SLC-1 membrane, FIG. 7
T1 construct: expressed in transfected cells; host or cells: CHO dhfr- cells, plasmid pAKK0-SLC-1, mainly clone #44
T1 sequence (P97639 whole entry): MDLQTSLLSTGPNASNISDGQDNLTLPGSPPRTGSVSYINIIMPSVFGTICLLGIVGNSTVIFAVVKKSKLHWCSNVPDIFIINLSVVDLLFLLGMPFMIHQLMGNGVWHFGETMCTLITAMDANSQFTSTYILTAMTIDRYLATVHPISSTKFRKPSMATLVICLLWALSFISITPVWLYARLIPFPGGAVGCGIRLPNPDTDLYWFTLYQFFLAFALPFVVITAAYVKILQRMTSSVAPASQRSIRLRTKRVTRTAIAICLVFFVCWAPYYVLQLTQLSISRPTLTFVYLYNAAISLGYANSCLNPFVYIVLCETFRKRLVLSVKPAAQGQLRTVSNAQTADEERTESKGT
Description: (§1) A rat SLC-1-expression CHO cell membrane fraction was prepared by the following procedure. Rat SLC-1-expression CHO cells (1×10^8 cells) were suspended in phosphate buffered saline (pH 7.4) supplemented with 5 mM EDTA (ethylene diamine tetra acetic acid) followed by centrifugation. after 10 ml of a homogenate buffer (10 mM NaHCO3, 5 mM EDTA, pH 7.5) was added to the cell pellets, the mixture was homogenized with a polytron homogenizer. the homogenate was then centrifuged at 400×g for 15 minutes. the resulting supernatant was further centrifuged at 100,000×g for an hour to give membrane fraction precipitates. the precipitates were suspended in 2 ml of an assay buffer (50 mM Tris-HCl (pH 7.5), 1 mM EDTA, 0.1% BSA (bovine serum albumin), 10 mM MgCl2, 100 mM NaCl, 1 μM GDP (guanosine 5′-diphosphate), 0.25 mM PMSF (phenylmethylsulfonyl fluoride), 1 μg/ml pepstatin, 20 μg/ml leupeptin, 10 μg/ml phosphoramidon). the suspension was centrifuged at 100,000×g for an hour. the cell membrane recovered as precipitates was resuspended in 20 ml of the assay buffer. after dispensing, the suspension was stored at −80° C., which maybe thawed every time upon use.

rat SLC-1 [2] = target: T1, rat SLC-1; assay: Inhibition of MCH-induced GTPγS binding by the method of Example 21 (compound plus MCH); conditions: read-out: IC50 calculated from the binding inhibition rate (%)
Description: The IC50(nM) of the compound (1) supra
as §1

human SLC-1 = target: T2, human SLC-1 (Homo sapiens, UniProt Q99705); assay: Agonist activity of Bolton-Hunter derivatized MCHs by GTPγS binding assay (Example 22); conditions: membrane fraction given as human SLC-1-expression CHO; FIG. 8
T2 construct: expressed in transfected cells; host or cells: CHO dhfr- cells, plasmid pAKK0-hSLC-1(S) or pAKK0-hSLC-1(L)
T2 sequence (Q99705 with tags, fused parts or gaps): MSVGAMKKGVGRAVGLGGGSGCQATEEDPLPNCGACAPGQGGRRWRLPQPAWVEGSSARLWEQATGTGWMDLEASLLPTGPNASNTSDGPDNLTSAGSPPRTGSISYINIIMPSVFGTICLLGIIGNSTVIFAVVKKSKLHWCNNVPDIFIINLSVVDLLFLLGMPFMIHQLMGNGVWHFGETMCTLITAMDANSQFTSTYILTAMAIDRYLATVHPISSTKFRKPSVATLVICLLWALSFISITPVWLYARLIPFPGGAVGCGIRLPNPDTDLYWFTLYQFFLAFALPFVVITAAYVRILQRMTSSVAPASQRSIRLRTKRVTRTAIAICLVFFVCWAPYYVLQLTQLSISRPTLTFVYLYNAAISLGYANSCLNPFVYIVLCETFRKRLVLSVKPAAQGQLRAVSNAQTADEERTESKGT

Compound	agonist activity as compared to that of MCH (rat SLC-1 [1])	amount of [35S]-GTPγS bound (agonist activity), dose dependence (human SLC-1)	also measured
Des-[Asp^1, Phe^2, Asp^3, Met, Leu^5]-MCH (RCMLGRVYRPCWQV; disulfide 2-11) [MCH(6-19)]	–	–	decrease of agonist activity as compared to that of MCH (rat SLC-1 [1]): approximately 10 times
Asp-Met-Leu-Arg-Cys-Met-Leu-Gly-Arg-Val-Tyr-Arg-Pro-Cys -Trp-Gln-Val (DMLRCMLGRVYRPCWQV; disulfide 5-14) [MCH(3-19)]	almost the same agonist activity	–	–
COc1ccc(-c2ccc(C(=O)Nc3ccc4c(c3)CCC(CN(C)C)C4)cc2)cc1 (stereo not shown) [compound (1), N-[2-(N,N-Dimethylamino)methyl-6-tetralinyl]-(4′-methoxybiphenyl-4-yl)carboxamide]	–	–	IC50 (rat SLC-1 [2]): 40 nM
Phe-Asp-Met-Leu-Arg-Cys-Met-Leu-Gly-Arg-Val-Tyr-Arg-Pro -Cys-Trp-Gln-Val (FDMLRCMLGRVYRPCWQV; disulfide 6-15) [MCH(2-19)]	almost the same agonist activity	–	–
BH-MCH(3-19): MCH(3-19) derivatized with a non-isotope Bolton-Hunter reagent (X1-DMLRCMLGRVYRPCWQV; disulfide 5-14)	–	increased dose-dependently	–
BH-MCH(2-19): MCH(2-19) derivatized with a non-isotope Bolton-Hunter reagent (X1-FDMLRCMLGRVYRPCWQV; disulfide 6-15)	–	increased dose-dependently	–
[N-(3-(4-Hydroxy-3-iodophenyl)propionyl)-Met^4]-MCH(4-19) (X1-MLRCMLGRVYRPCWQV; disulfide 4-13) [BH-MCH(4-19)]	–	increased dose-dependently	–
Met-Leu-Arg-Cys-Met-Leu-Gly-Arg-Val-Tyr-Arg-Pro-Cys-Trp -Gln-Val (MLRCMLGRVYRPCWQV; disulfide 4-13) [MCH(4-19)]	almost the same agonist activity	–	–
BH-MCH(5-19): MCH(5-19) derivatized with a non-isotope Bolton-Hunter reagent (X1-LRCMLGRVYRPCWQV; disulfide 3-12)	–	increased dose-dependently	–
Leu-Arg-Cys-Met-Leu-Gly-Arg-Val-Tyr-Arg-Pro-Cys-Trp-Gln -Val-OH (LRCMLGRVYRPCWQV-OH; disulfide 3-12; N-terminus assumed; SMILES CSCC[C@@H]1NC(=O)[C@@H](NC(=O)[C@H](CCCNC(=N)N)NC(=O)[C@@H](N)CC(C)C)CSSC[C@@H](C(=O)N[C@@H](Cc2c[nH]c3ccccc23)C(=O)N[C@@H](CCC(N)=O)C(=O)N[C@H](C(=O)O)C(C)C)NC(=O)[C@@H]2CCCN2C(=O)[C@H](CCCNC(=N)N)NC(=O)[C@H](Cc2ccc(O)cc2)NC(=O)[C@H](C(C)C)NC(=O)[C@H](CCCNC(=N)N)NC(=O)CNC(=O)[C@H](CC(C)C)NC1=O) [MCH(5-19)]	almost the same agonist activity	–	–
